# Assay results published in publication PMC11548754, “DRN facilitates WUS transcriptional regulatory activity by chromatin remodeling to regulate shoot stem cell homeostasis in Arabidopsis”.
# T1: GST-WUS (WUSCHEL) (Arabidopsis thaliana, UniProt Q9SB92 1-292)
# T1 sequence: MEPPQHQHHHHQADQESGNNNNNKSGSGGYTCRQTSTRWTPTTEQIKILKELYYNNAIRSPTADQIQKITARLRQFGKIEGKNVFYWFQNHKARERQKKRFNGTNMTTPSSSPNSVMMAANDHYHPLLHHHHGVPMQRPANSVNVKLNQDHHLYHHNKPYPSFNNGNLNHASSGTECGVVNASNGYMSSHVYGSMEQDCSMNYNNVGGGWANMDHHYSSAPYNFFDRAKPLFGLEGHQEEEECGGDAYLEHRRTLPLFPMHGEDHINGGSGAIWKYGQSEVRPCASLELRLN
# Legend:
# [1] = target: GST-WUS (WUSCHEL);8His-MBP-DRN (DORNROSCHEN) (Arabidopsis thaliana;Arabidopsis …, UniProt Q9SB92;Q9SAD4 1-292;1-328, |); experiment: EMSA; super-shift on adding DRN to WUS; EMSA kit (Thermo 20148), biotin-labeled probe; buffer, salt, pH and temperature not stated; conditions: protein: recombinant;recombinant; tags: N-terminal GST (pGEX6p-1);N-terminal 8His-MBP (modified pET28b); label: biotin; blunt
# GST-WUS (WUSCHEL) = target: T1, GST-WUS (WUSCHEL); experiment: EMSA; EMSA kit (Thermo 20148), biotin-labeled probe; buffer, salt, pH and temperature not stated; conditions: protein: recombinant; tags: N-terminal GST (pGEX6p-1); chain copies: 2; label: biotin; blunt
# Chain of GST-WUS (WUSCHEL);8His-MBP-DRN (DORNROSCHEN) (Q9SAD4 whole entry, one chain of several): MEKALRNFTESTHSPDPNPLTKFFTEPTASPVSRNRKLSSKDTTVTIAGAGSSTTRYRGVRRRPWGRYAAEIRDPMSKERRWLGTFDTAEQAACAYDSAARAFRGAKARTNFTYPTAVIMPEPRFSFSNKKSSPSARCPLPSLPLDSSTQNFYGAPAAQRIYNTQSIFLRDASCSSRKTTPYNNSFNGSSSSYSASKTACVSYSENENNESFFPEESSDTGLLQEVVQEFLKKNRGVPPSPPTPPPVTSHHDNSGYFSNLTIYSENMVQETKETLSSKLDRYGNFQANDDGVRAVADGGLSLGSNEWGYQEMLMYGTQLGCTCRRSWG
binder,measurement,setting,value
CLV3 promoter probe (-1090 to -1064) (dsDNA) DNA 1: GGCTCATATAATCCATTCAATTTATG DNA 2: CATAAATTGAATGGATTATATGAGCC,binding result,[1],binds
same,binding result,GST-WUS (WUSCHEL),binds
